Source: publication PMC11306496

Columns and labels:
Assay in all cases: co-IP; total rat hippocampal lysates with primary antibody and Protein A/G agarose, 4°C; buffer pH 7.4, 0.05 mol/L HEPES, 0.15 mol/L NaCl, 0.5% NP-40, 1% Triton X-100; non-immune IgG as control; slices untreated or treated with PMA (0.5 umol/L, 10 min) and/or AIP (1 umol/L)
[1] = target: Rab11 family-interacting protein 3 (rat (endogenous in hippocampus))
[2] = target: small GTPase Rab11 (rat (endogenous in hippocampus)) (UniProt P62494)
small GTPase Rab11 (rat (endogenous in hippocampus)), sequence (P62494 whole entry): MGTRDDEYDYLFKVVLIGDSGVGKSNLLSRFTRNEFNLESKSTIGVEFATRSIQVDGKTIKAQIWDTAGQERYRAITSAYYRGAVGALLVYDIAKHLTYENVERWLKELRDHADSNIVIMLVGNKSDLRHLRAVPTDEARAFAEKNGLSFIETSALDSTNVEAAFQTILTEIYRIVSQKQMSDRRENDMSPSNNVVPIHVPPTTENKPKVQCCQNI

[3] = target: NMDA receptor subunit GluN1 (rat (endogenous in hippocampus)) (UniProt P35439)
[4] = target: myosin Va (rat (endogenous in hippocampus)) (UniProt Q9QYF3)
myosin Va (rat (endogenous in hippocampus)), sequence (Q9QYF3 whole entry): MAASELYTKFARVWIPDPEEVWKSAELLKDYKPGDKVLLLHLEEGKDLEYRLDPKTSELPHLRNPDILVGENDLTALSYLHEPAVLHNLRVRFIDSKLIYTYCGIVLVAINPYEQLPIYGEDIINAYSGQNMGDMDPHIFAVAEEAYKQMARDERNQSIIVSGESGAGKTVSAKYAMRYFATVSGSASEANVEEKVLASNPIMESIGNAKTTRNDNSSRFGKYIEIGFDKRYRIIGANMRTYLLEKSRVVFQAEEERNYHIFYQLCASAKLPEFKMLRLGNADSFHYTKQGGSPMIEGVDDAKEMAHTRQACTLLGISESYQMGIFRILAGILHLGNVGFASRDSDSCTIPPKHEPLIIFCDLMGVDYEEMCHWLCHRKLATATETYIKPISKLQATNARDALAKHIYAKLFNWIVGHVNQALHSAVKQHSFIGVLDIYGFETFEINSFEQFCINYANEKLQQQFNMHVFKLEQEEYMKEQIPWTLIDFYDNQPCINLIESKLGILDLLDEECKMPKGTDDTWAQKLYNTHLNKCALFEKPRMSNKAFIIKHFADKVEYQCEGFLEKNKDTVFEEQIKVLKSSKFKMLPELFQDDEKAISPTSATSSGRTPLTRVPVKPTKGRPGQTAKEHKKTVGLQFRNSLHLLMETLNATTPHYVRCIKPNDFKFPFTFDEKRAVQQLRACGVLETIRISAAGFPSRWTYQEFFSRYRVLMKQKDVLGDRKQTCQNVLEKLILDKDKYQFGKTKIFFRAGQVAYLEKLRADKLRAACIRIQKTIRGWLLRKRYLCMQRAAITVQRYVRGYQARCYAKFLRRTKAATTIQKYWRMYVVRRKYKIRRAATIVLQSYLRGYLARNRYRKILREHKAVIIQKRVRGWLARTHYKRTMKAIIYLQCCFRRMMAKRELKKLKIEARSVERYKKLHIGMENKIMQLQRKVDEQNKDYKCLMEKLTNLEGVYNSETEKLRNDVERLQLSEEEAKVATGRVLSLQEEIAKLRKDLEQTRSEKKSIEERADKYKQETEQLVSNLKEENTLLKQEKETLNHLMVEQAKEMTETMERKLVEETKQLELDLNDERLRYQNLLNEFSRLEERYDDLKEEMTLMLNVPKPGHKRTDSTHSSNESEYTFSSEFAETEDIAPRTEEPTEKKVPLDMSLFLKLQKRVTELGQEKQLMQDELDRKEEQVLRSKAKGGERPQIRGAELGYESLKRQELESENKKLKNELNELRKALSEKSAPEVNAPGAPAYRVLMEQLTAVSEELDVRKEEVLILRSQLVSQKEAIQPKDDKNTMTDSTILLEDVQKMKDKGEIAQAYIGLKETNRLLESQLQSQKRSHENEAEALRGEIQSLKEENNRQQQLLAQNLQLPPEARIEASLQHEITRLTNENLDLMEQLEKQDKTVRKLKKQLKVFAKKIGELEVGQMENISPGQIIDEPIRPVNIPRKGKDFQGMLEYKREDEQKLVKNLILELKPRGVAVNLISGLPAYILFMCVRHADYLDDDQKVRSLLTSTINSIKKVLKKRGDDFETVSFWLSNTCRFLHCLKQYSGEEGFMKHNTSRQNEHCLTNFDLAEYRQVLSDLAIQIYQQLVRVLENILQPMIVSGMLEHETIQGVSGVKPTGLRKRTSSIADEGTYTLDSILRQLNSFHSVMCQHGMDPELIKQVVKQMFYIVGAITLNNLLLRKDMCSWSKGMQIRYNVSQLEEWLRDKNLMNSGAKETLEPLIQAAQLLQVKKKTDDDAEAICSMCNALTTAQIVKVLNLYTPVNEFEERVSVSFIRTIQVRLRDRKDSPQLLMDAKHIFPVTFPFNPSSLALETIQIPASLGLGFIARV

small GTPase Rab11, sequence (P62494 whole entry): as the sequence (P62494 whole entry) above
NMDA receptor subunit GluN2A, sequence (Q00959 23-1464): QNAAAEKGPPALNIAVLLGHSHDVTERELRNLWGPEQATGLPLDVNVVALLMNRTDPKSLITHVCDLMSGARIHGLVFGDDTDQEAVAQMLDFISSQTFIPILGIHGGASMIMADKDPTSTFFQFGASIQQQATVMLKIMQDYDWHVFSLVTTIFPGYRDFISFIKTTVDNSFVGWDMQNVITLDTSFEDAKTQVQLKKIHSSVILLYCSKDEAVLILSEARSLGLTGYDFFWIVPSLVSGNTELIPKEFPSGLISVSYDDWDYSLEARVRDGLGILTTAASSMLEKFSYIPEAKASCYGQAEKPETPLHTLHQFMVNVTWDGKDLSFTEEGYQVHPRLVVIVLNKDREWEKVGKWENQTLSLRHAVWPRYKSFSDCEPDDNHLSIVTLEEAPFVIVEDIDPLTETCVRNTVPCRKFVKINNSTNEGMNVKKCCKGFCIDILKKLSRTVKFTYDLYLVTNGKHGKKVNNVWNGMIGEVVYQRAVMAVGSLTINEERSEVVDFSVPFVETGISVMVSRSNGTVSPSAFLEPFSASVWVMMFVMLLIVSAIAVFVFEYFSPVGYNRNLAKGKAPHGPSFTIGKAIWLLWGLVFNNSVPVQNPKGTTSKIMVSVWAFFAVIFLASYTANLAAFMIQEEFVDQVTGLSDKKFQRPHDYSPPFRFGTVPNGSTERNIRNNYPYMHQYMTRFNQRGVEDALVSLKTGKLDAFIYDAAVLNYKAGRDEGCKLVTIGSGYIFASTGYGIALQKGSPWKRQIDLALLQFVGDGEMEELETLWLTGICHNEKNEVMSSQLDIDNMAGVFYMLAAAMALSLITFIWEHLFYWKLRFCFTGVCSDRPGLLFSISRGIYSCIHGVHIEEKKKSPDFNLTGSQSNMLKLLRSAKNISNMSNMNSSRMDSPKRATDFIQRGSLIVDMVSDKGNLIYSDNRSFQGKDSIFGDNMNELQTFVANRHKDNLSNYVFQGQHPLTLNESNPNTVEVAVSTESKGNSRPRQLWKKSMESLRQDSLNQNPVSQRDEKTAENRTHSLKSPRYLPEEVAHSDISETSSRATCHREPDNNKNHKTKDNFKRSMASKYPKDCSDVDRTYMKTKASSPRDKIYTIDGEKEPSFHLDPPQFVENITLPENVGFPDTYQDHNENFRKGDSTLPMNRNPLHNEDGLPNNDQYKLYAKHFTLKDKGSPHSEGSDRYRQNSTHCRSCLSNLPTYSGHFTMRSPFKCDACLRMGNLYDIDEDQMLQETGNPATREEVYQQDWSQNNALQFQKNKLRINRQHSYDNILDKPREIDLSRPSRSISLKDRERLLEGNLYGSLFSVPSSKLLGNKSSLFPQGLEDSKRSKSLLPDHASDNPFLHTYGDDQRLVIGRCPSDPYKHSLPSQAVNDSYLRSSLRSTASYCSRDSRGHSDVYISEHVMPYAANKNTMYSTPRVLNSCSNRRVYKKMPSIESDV

co-IP signal with PMA, normalised to control (IP with anti-FIP3) (fold of control) [1] | co-IP signal with PMA, normalised to control (IP with anti-Rab11) (fold of control) [2] | co-IP signal with PMA, normalised to control (IP with anti-GluN1) (fold of control) [3] | co-IP signal with PMA, normalised to control (IP with anti-MyoVa) (fold of control) [4] | Substance
1.44 | 1.5 |  |  | NMDA receptor subunit GluN1 (from UniProt P35439 19-938)
1.45 | 1.39 |  |  | NMDA receptor subunit GluN2A (from UniProt Q00959 23-1464)
 |  | 1.37 |  | Rab11 family-interacting protein 3 (natural protein)
1.33 | 1.33 |  |  | myosin Va (from UniProt Q9QYF3 1-1828) (natural protein)
1.38 |  | 1.53 | 1.31 | small GTPase Rab11 (from UniProt P62494 1-216) (natural protein)
